According to US20090304651A1 (published 2009):

Columns and labels:
[1] = target: T1, recombinant human IGF-II (Insulin-like Growth Factor II) (human, UniProt P01344 25-91, biotinylated (Biotinyl-IGF-II, GroPep) where immobilised in SPR, site not stated; not biotinylated in ITC and as SPR analyte); assay: SPR, IGF-II immobilised, steady state
T1 construct: also called IGF2; IGF-2
Description: Kinetic analysis by Surface Plasmon Resonance (SPR) was conducted on a BIAcore 3000 biosensor (BIAcore, Uppsala, Sweden) at 25° C. in HBS-EP (10 mM HEPES, pH 7.4, 150 mM NaCl, 3 mM EDTA, 0.005% surfactant P20) at a flow rate of 40 μl/min. […] Kinetic experiments consisted of a two minute injection of analyte followed by a 100 s dissociation phase in running buffer, after which the binding surface was regenerated with a 2 minute injection of 2 M MgCl₂. A blank flow cell was used for in-line reference subtraction of changes due to differences in refractive index of running buffer versus sample and a buffer-only injection was used to subtract instrument noise and drift. Injections were performed in duplicate for each concentration and in a randomised order. Kinetic parameters were determined by global fitting of sensorgrams to a two-state (conformational change) binding model using BIAevaluation software version 4.0.1. In all cases the minor component made an insignificant contribution to the overall affinity and as such only the kinetic parameters of the major binding component were used. For each interaction the dissociation affinity constant (KD) was also calculated by fitting of the response of each concentration at equilibrium to a steady-state affinity model using BIAevaluation. […]

[2] = target: T1, recombinant human IGF-II (Insulin-like …); assay: SPR, IGF-II immobilised, kinetic fit
Description: Kinetic analysis by Surface Plasmon Resonance (SPR) was conducted on a BIAcore 3000 biosensor (BIAcore, Uppsala, Sweden) at 25° C. in HBS-EP (10 mM HEPES, pH 7.4, 150 mM NaCl, 3 mM EDTA, 0.005% surfactant P20) at a flow rate of 40 μl/min. […] Kinetic experiments consisted of a two minute injection of analyte followed by a 100 s dissociation phase in running buffer, after which the binding surface was regenerated with a 2 minute injection of 2 M MgCl₂. A blank flow cell was used for in-line reference subtraction of changes due to differences in refractive index of running buffer versus sample and a buffer-only injection was used to subtract instrument noise and drift. Injections were performed in duplicate for each concentration and in a randomised order. Kinetic parameters were determined by global fitting of sensorgrams to a two-state (conformational change) binding model using BIAevaluation software version 4.0.1. In all cases the minor component made an insignificant contribution to the overall affinity and as such only the kinetic parameters of the major binding component were used. For each interaction the dissociation affinity constant (KD) was also calculated by fitting of the response of each concentration at equilibrium to a steady-state affinity model using BIAevaluation. In order to investigate the influence of ionic strength, kinetic experiments were conducted in HBS-EP running buffers containing the desired NaCl concentration. In each case, analyte samples were made up in the appropriate running buffer prior to injection.

[3] = target: T1, recombinant human IGF-II (Insulin-like …); assay: SPR, IGF-II immobilised, bivalent analyte model, kd1
Description: (§1) Kinetic experiments consisted of a two minute injection of analyte followed by a 100 s dissociation phase in running buffer, after which the binding surface was regenerated with a 2 minute injection of 2 M MgCl₂. A blank flow cell was used for in-line reference subtraction of changes due to differences in refractive index of running buffer versus sample and a buffer-only injection was used to subtract instrument noise and drift. Injections were performed in duplicate for each concentration and in a randomised order. Kinetic parameters were determined by global fitting of sensorgrams to a two-state (conformational change) binding model using BIAevaluation software version 4.0.1. In all cases the minor component made an insignificant contribution to the overall affinity and as such only the kinetic parameters of the major binding component were used. For each interaction the dissociation affinity constant (KD) was also calculated by fitting of the response of each concentration at equilibrium to a steady-state affinity model using BIAevaluation. […]
(§2) The affinity of versions of Fc-tagged domain 11 fusion proteins, and domain 11 constructs, for IGF-II were compared using surface plasmon resonance (BIAcore 3000). […] The Fc-tagged domain 11 kinetic data performed in triplicate generated sensorgrams that were analyzed using a bivalent analyte model.

[4] = target: T1, recombinant human IGF-II (Insulin-like …); assay: SPR, IGF-II immobilised, bivalent analyte model, ka1
Description: as §1, §2

[5] = target: T1, recombinant human IGF-II (Insulin-like …); assay: SPR, IGF-II immobilised, bivalent analyte model
Description: as §1, §2

[6] = target: T2, recombinant human IGF-I (Insulin-like Growth Factor I) (human, UniProt P05019 49-118, biotinylated (Biotinyl-IGF-I, GroPep), site not stated); assay: SPR, biotinylated IGF-I immobilised
T2 construct: also called IGF1; Biotinyl-IGF-I
Description: (§3) Kinetic experiments consisted of a two minute injection of analyte followed by a 100 s dissociation phase in running buffer, after which the binding surface was regenerated with a 2 minute injection of 2 M MgCl₂. A blank flow cell was used for in-line reference subtraction of changes due to differences in refractive index of running buffer versus sample and a buffer-only injection was used to subtract instrument noise and drift. Injections were performed in duplicate for each concentration and in a randomised order. Kinetic parameters were determined by global fitting of sensorgrams to a two-state (conformational change) binding model using BIAevaluation software version 4.0.1. In all cases the minor component made an insignificant contribution to the overall affinity and as such only the kinetic parameters of the major binding component were used. For each interaction the dissociation affinity constant (KD) was also calculated by fitting of the response of each concentration at equilibrium to a steady-state affinity model using BIAevaluation. In order to investigate the influence of ionic strength, kinetic experiments were conducted in HBS-EP running buffers containing the desired NaCl concentration. In each case, analyte samples were made up in the appropriate running buffer prior to injection.
(§4) The affinity of versions of Fc-tagged domain 11 fusion proteins, and domain 11 constructs, for IGF-II were compared using surface plasmon resonance (BIAcore 3000). Attempts were made to immobilize Fc-tagged domain 11 proteins upon a sensor chip surface (CM5 and CM5-proteinA) but we encountered similar problems as described above with immobilised monomeric domain 11. Instead, immobilisation of biotinylated IGF-I and IGF-II on separate flow cells of a streptavidin coated sensor chip (BIAcore) generated reproducible sensorgram profiles when Fc-tagged and untagged domain 11 proteins were passed over the surface as analytes. The Fc-tagged domain 11 kinetic data performed in triplicate generated sensorgrams that were analyzed using a bivalent analyte model.

[7] = target: T1, recombinant human IGF-II (Insulin-like …); assay: SPR, IGF-II immobilised
Description: as §3, §4

[8] = target: T1, recombinant human IGF-II (Insulin-like …); assay: SPR, biotinylated IGF-II immobilised
Description: as §1, §2

T2 sequence (P05019 49-118 limits assumed): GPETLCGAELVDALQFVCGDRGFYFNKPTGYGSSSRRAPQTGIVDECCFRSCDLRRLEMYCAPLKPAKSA
T1 sequence (P01344 25-91 limits assumed): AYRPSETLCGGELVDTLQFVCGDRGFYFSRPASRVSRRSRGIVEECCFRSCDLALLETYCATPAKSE

koff [3] [s⁻¹]	kon [4] [M⁻¹ s⁻¹]	Kd [5] [nM]	binding result [6]	Binder	also measured
–	–	–	–	IGF2R domain 11 expressed in E. coli (pET-15), refolded and purified (receptor, also called purified 11 from E. coli; native domain 11 protein) NEHDDCQVTNPSTGHLFDLSSLSGRAGFTAAYSEKGLVYMSICGENENCPPGVGACFGQTRISVGKANKRLRYVDQVLQLVYKDGSPCPSKSGLSYKSVISFVCRPEAGPTNRPMLISLDKQTCTLFFSWHTPLACEQAT	Kd [1]: 114 nM; Kd [2]: 114 nM; koff [2]: 0.063 s⁻¹; kon [2]: 553000 M⁻¹ s⁻¹
0.00445	1.36e+06	3.26	no binding	Fc-tagged wild-type IGF2R domain 11 (11-Fc), human IgG1 Fc at the C-terminus, homodimer from Drosophila D.Mel-2 cells (Fc fusion, N-glycosylated with two 982.9 Da molecules of Man3GlcNAc2, also called 11^Wild type-Fc; 11^Wild type -Fc; not shown: human IgG1 Fc domain, amplified from IMAGE clone 4851063) NEHDDCQVTNPSTGHLFDLSSLSGRAGFTAAYSEKGLVYMSICGENENCPPGVGACFGQTRISVGKANKRLRYVDQVLQLVYKDGSPCPSKSGLSYKSVISFVCRPEAGPTNRPMLISLDKQTCTLFFSWHTPLACEQAT	–
0.00401	2.23e+06	1.79	no binding	Fc-tagged enhanced mutant IGF2R domain 11 (11^E1544K-Fc), human IgG1 Fc at the C-terminus, homodimer from Drosophila D.Mel-2 cells (Fc fusion, N-glycosylated with two 982.9 Da molecules of Man3GlcNAc2, not shown: human IgG1 Fc domain, amplified from IMAGE clone 4851063) NEHDDCQVTNPSTGHLFDLSSLSGRAGFTAAYSKKGLVYMSICGENENCPPGVGACFGQTRISVGKANKRLRYVDQVLQLVYKDGSPCPSKSGLSYKSVISFVCRPEAGPTNRPMLISLDKQTCTLFFSWHTPLACEQAT	Ru response amplitude relative to 11-Fc at equal concentrations [7]: ~2 fold; molar affinity relative to 11-Fc [7]: ~2 fold
–	–	–	no binding	Fc-tagged null mutant IGF2R domain 11 (11^I1572A-Fc), human IgG1 Fc at the C-terminus, homodimer from Drosophila D.Mel-2 cells (Fc fusion, N-glycosylated with two 982.9 Da molecules of Man3GlcNAc2, not shown: human IgG1 Fc domain, amplified from IMAGE clone 4851063) NEHDDCQVTNPSTGHLFDLSSLSGRAGFTAAYSEKGLVYMSICGENENCPPGVGACFGQTRASVGKANKRLRYVDQVLQLVYKDGSPCPSKSGLSYKSVISFVCRPEAGPTNRPMLISLDKQTCTLFFSWHTPLACEQAT	binding result [8]: no binding
–	–	–	–	IGF2R domain 11 with cysteine at position 1544 (E1544C) (receptor) NEHDDCQVTNPSTGHLFDLSSLSGRAGFTAAYSCKGLVYMSICGENENCPPGVGACFGQTRISVGKANKRLRYVDQVLQLVYKDGSPCPSKSGLSYKSVISFVCRPEAGPTNRPMLISLDKQTCTLFFSWHTPLACEQATHHHHHH	binding result [7]: binds

Binder	koff [3] [s⁻¹]	kon [4] [M⁻¹ s⁻¹]	Kd [5] [nM]	binding result [6]	also measured
IGF2R domain 11 I1572A (amino acids 1511-1650, C-terminal His6 tag, from Pichia pastoris) (receptor, also called null mutant) NEHDDCQVTNPSTGHLFDLSSLSGRAGFTAAYSEKGLVYMSICGENENCPPGVGACFGQTRASVGKANKRLRYVDQVLQLVYKDGSPCPSKSGLSYKSVISFVCRPEAGPTNRPMLISLDKQTCTLFFSWHTPLACEQATHHHHHH	–	–	–	no binding (tested: 16384 nM highest analyte concentration)	–
